Data from PMC6511843.

B1: HA.ELK-1 [not stated] / recombinant core^SRF [not stated] (parent)
chain 1: MDPSVTLWQFLLQLLREQGNGHIISWTSRDGGEFKLVDAEEVARLWGLRKNKTNMNYDKLSRALRYYYDKNIIRKVSGQKFVYKFVSYPEVAGCSTEDCPPQPEVSVTSTMPNVAPAAIHAAPGDTVSGKPGTPKGAGMAGPGGLARSSRNEYMRSGLYSTFTIQSLQPQPPPHPRPAVVLPSAAPAGAAAPPSGSRSTSPSPLEACLEAEEAGLPLQVILTPPEAPNLKSEELNVEPGLGRALPPEVKVEGPKEELEVAGERGFVPETTKAEPEVPPQEGVPARLPAVVMDTAGQAGGHAASSPEISQPQKGRKPRDLELPLSPSLLGGPGPERTPGSGSGSGLQAPGPALTPSLLPTHTLTPVLLTPSSLPPSIHFWSTLSPIAPRSPAKLSFQFPSSGSAQVHIPSISVDGLSTPVVLSPGPQKP
chain 2: SGAKPGKKTRGRVKIKMEFIDNKLRRYTTFSKRKTGIMKKAYELSTLTGTQVLLLVASETGHVYTFATRKLQPMITSETGKALIQTCLNSP

Variants of: B1
Experiment: EMSA (ternary complex with coreSRF on radio-labelled SRE probe), densitometry
Conditions: parent: 100, read off a plot

First: chain 1 K50R K52R
Second: chain 1 K59R
The percent of parent (% of ELK-1 (WT = 100)) of the first is higher: 51 for the first, 11 for the second.
